In publication doi:10.1101/2021.07.23.453429:

How the values were obtained:
cyclophilin D [1] = molecular target: cyclophilin D (UniProt P30405); test: NMR titration
cyclophilin D [2] = molecular target: cyclophilin D (UniProt P30405); test: SPR

Sequence of cyclophilin D (P30405 43-207): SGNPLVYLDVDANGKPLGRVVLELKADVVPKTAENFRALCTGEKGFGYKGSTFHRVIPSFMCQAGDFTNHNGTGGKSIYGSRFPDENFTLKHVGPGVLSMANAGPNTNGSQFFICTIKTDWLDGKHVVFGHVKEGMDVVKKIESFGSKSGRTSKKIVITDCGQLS

| residue-based KD (CypD residue G65) (cyclophilin D [1]) | residue-based KD (CypD residue I114) (cyclophilin D [1]) | residue-based KD (CypD residue S77) (cyclophilin D [1]) | Kd (cyclophilin D [2]) | Substance |
| --- | --- | --- | --- | --- |
| 4.1 μΜ | 32 μΜ | 6.6 μΜ | 8.4 µM | p53 N-terminal domain (NTD) (domain or fragment) |
|  |  |  | 10 µM | p53 NTD-DBD (domain or fragment) |
